As a reminder, the Kd is the concentration at which binding is half-saturated.

Test [1] has as its target TIN2 (UniProt Q9BSI4). Briefly: biotin-peptide pull-down from nuclear extract, MS. The following applies: reference: unphosphorylated peptide (TRF2-CTRL); sites S410.
For test [2], the target named is TRF2-CTRL peptide labelled at the N-terminus with carboxyfluorescein (FAM) (human). Put plainly: fluorescence polarisation; fluorescence anisotropy; 3 nM FAM-peptide titrated with TIN2 to 500 nM; 50 mM NaCl, 50 mM phosphate buffer pH 7.0, 25 C.
Test [3] has as its target TRF2-pS410 peptide labelled at the N-terminus with carboxyfluorescein (FAM) (human). The description is as above.

Chain of TRF2-pS410 peptide labelled at the N-terminus with carboxyfluorescein (FAM) (human) (Q15554 401-420): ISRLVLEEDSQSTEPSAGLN

With “TRF2 (from UniProt Q15554) pS410 peptide”, the “binding against the reference” value in test [1] was “stronger”. Consider “purified human TIN2 (from UniProt Q9BSI4 1-451) (natural protein)”, for which the figures for the Kd in test [2] and in test [3] were 240 nM and 180 nM, respectively.

These data come from paper PMC9943673.
